In this assay the target is T1, GST-PCAF (aa 352–832) (human, UniProt Q92831 352-832).
T1 construct: PCAF (KAT2B), residues 352-832, fused to GST; Written GST-PCAF; source: bacterially expressed and purified
The assay can be described thus: pull-down; purified VRK1-His and GST-PCAF (aa 352–832) incubated in 20 mM Tris–HCl pH 7.5, 5 mM MgCl2, 0.5 mM DTT, 150 mM KCl at 37 °C for 45 min; Glutathione Sepharose 4B overnight at 4 °C; SDS-PAGE, Coomassie staining; dose-dependent. Conditions: both partners purified.

Results on one molecule are retold here after article PMC10182654, “The pattern of histone H3 epigenetic posttranslational modifications is regulated by the VRK1 chromatin kinase” (Epigenetics & Chromatin, 2023).

T1 sequence (Q92831 352-832): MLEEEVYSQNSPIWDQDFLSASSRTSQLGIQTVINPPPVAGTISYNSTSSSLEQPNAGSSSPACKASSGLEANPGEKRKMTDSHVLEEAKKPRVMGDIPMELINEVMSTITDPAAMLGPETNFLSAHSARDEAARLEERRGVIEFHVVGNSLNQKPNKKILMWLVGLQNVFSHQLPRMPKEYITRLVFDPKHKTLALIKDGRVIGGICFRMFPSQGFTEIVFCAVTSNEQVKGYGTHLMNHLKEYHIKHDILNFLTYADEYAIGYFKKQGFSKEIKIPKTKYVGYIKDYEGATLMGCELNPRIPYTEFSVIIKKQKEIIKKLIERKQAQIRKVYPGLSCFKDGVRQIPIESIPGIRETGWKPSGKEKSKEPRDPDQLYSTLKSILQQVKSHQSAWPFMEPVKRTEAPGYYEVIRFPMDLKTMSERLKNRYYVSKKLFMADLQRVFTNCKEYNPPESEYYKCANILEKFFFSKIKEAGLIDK

B1: VRK1-His (enzyme, human, UniProt Q99986 1-396, looked up)
chain: MPRVKAAQAGRQSSAKRHLAEQFAVGEIITDMAKKEWKVGLPIGQGGFGCIYLADMNSSESVGSDAPCVVKVEPSDNGPLFTELKFYQRAAKPEQIQKWIRTRKLKYLGVPKYWGSGLHDKNGKSYRFMIMDRFGSDLQKIYEANAKRFSRKTVLQLSLRILDILEYIHEHEYVHGDIKASNLLLNYKNPDQVYLVDYGLAYRYCPEGVHKEYKEDPKRCHDGTIEFTSIDAHNGVAPSRRGDLEILGYCMIQWLTGHLPWEDNLKDPKYVRDSKIRYRENIASLMDKCFPEKNKPGEIAKYMETVKLLDYTEKPLYENLRDILLQGLKAIGSKDDGKLDLSVVENGGLKAKTITKKRKKEIEESKEPGVEDTEWSNTQTEEAIQTRSRTRKRVQK
notes: VRK1 with a His tag, bacterially expressed and purified; Printed both as His-VRK1 (results) and VRK1-His (methods); the end of the tag cannot be told; also called His-VRK1; source: bacterially expressed and purified
Regarding B1, the binding result was “binds”.
